Sequences and labels used below:
B1: Hammerhead Ribozyme (parent)
chain: ACCGGAUGUGCUUUCCGGUCUGAUGAGUCCGUGAGGACGAAACAG

Variants of B1 are the subject of the series. In words: self-cleavage, relative activity (ratio to wild type); higher = more cleavage; co-transcriptional.
Regarding G5A C16U, the self-cleavage came to 1.54.
G5A C16G: the self-cleavage amounted to 0.931.
As to G5A C16A, the self-cleavage came to 1.56.
As to G5C A26C, the self-cleavage was determined as 0.282.
The result for G5C A26U reads 0.339; that for G5C A26G, 0.267; that for G5A U7C, 1.06.
On to G5A U7A, for which the self-cleavage stood at 0.95.
Turning to G5A U7G, the self-cleavage is 1.56.
G5C C11G: the self-cleavage worked out at 0.873.
Regarding G5C C11U, the self-cleavage amounted to 0.336.
On to G5C C11A, for which the self-cleavage was found to be 0.761.
On to G5A U12C, for which the self-cleavage worked out at 1.07.
On to G5A U12A, for which the self-cleavage amounted to 1.22.
Regarding G5A U12G, the self-cleavage was 1.31.
As for G5A C15G, the self-cleavage is 1.53.
The same measure for G5A C15A: 1.32.
On to G5A C15U, for which the self-cleavage came to 1.78.
The result for G5A C20A reads 0.415; that for G5A C20G, 0.286.
G5A C20U: the self-cleavage turned out to be 1.01.
As for G5C G17A, the self-cleavage worked out at 0.313.
For G5C G17U, the self-cleavage came to 0.381.
The same measure for G5C G17C: 0.268; for G5A C29U: 0.95; for G5A C29G: 0.464.
G5A C29A: the self-cleavage amounted to 0.445.
The same measure for G5C C43U: 0.316; for G5C C43G: 0.33.
Take G5C C43A: the self-cleavage amounted to 0.294.
Consider G5A U9C, for which the self-cleavage amounted to 1.37.
Regarding G5A U9G, the self-cleavage came out at 0.88.
Regarding G5A U9A, the self-cleavage was found to be 1.27.
G5A G18U: the self-cleavage came to 0.371.
For G5A G18C, the self-cleavage came to 0.386.
G5A G18A: the self-cleavage was found to be 0.47.
Consider G5A U24A, for which the self-cleavage turned out to be 1.21.
Take G5A U24C: the self-cleavage turned out to be 1.43.
Turning to G5A U24G, the self-cleavage is 0.965.
Turning to G5C A23U, the self-cleavage stood at 0.221.
With G5C A23G, the self-cleavage amounted to 0.324.
Turning to G5C A23C, the self-cleavage worked out at 0.326.
The same measure for G5A G35C: 0.66; for G5A G35U: 0.848; for G5A G35A: 0.642.
As for G5A U32A, the self-cleavage worked out at 1.32.
On to G5A U32C, for which the self-cleavage worked out at 1.15.
As to G5A U32G, the self-cleavage stood at 0.533.
The result for G5A C11G reads 1.27; that for G5A C11U, 0.804; that for G5A C11A, 1.43.
Regarding G5C G22A, the self-cleavage is 0.263.
Take G5C G22U: the self-cleavage was determined as 0.299.
The result for G5C G22C reads 0.243; that for G5C G25A, 0.305; that for G5C G25C, 0.397.
Turning to G5C G25U, the self-cleavage was 0.307.
Take G5C: the self-cleavage was determined as 0.669.
For the variant G5A G17A, the self-cleavage is 0.397.
The same measure for G5A G17C: 0.434.
On to G5A G17U, for which the self-cleavage came to 0.452.
The same measure for G5A G22C: 0.315; for G5A G22U: 0.325.
On to G5A G22A, for which the self-cleavage came to 0.322.
As for G5A G8C, the self-cleavage is 0.954.
The same measure for G5A G8A: 1.24; for G5A G8U: 1.33.
As for G5C C38A, the self-cleavage turned out to be 0.264.
As to G5C C38U, the self-cleavage came to 0.479.
As for G5C C38G, the self-cleavage came out at 0.278.
G5C A41U: the self-cleavage came out at 0.326.
For G5C A41G, the self-cleavage was 0.27.
In the case of G5C A41C, the self-cleavage stood at 0.249.
Take G5C G8U: the self-cleavage is 0.693.
As for G5C G8A, the self-cleavage stood at 0.619.
As for G5C G8C, the self-cleavage was 0.77.
With G5A U21C, the self-cleavage worked out at 0.977.
The same measure for G5A U21A: 0.57; for G5A U21G: 0.378.
Take G5A C38U: the self-cleavage came out at 0.935.
The same measure for G5A C38A: 0.65; for G5A C38G: 0.575.
Regarding G5A G39U, the self-cleavage was found to be 0.329.
Take G5A G39C: the self-cleavage was found to be 0.328.
In the case of G5A G39A, the self-cleavage stood at 0.353.
G5A C43U: the self-cleavage worked out at 0.467.
As for G5A C43G, the self-cleavage amounted to 0.312.
The result for G5A C43A reads 0.34; that for G5C G18A, 0.293; that for G5C G18U, 0.307.
With G5C G18C, the self-cleavage was 0.34.
Take G5A G31U: the self-cleavage was 1.61.
In the case of G5A G31C, the self-cleavage was 1.32.
Turning to G5A G31A, the self-cleavage is 1.65.
With G5C C20G, the self-cleavage was found to be 0.265.
As to G5C C20U, the self-cleavage is 0.358.
As to G5C C20A, the self-cleavage is 0.271.
For the variant G5A U28C, the self-cleavage is 0.654.
The same measure for G5A U28G: 0.377.
Consider G5A U28A, for which the self-cleavage came to 0.364.
In the case of G5C G27C, the self-cleavage came to 0.354.
The result for G5C G27A reads 0.351; that for G5C G27U, 0.321; that for G5C G31A, 0.855.
The same measure for G5C C16G: 0.716; for G5C C16A: 1.19.
In the case of G5C C16U, the self-cleavage worked out at 0.883.
Regarding G5A U13C, the self-cleavage was 1.6.
The same measure for G5A U13G: 1.72.
Regarding G5A U13A, the self-cleavage worked out at 1.68.
Regarding G5C G10U, the self-cleavage was found to be 0.64.
Regarding G5C G10A, the self-cleavage is 0.638.
For the variant G5C G10C, the self-cleavage turned out to be 0.441.
In the case of G5C A44U, the self-cleavage is 0.358.
The result for G5C A44C reads 0.345; that for G5C A44G, 0.831; that for G5C A42U, 0.328.
For the variant G5C A42C, the self-cleavage stood at 0.356.
For G5C A42G, the self-cleavage came to 0.24.
The result for G5A G36A reads 0.667; that for G5A G36C, 0.384.
For G5A G36U, the self-cleavage was 0.41.
Regarding G5A C30U, the self-cleavage came out at 1.43.
Take G5A C30G: the self-cleavage was found to be 0.597.
For G5A C30A, the self-cleavage was 1.08.
With G5C C30U, the self-cleavage stood at 0.539.
Take G5C C30G: the self-cleavage worked out at 0.314.
Turning to G5C C30A, the self-cleavage was determined as 0.623.
As for G5C A34G, the self-cleavage turned out to be 0.74.
For the variant G5C A34C, the self-cleavage stood at 0.336.
In the case of G5C A34U, the self-cleavage came to 0.477.
The same measure for G5A G33A: 1.44.
As for G5A G33C, the self-cleavage came out at 1.22.
For G5A G33U, the self-cleavage stood at 1.44.
Take G5C C15G: the self-cleavage is 1.13.
As to G5C C15U, the self-cleavage stood at 1.31.
Regarding G5C C15A, the self-cleavage was found to be 0.953.
On to G5A U14A, for which the self-cleavage turned out to be 1.58.
The result for G5A U14C reads 1.49.
Regarding G5A U14G, the self-cleavage worked out at 1.41.
The result for G5A G10A reads 1.54; that for G5A G10U, 1.73.
In the case of G5A G10C, the self-cleavage was determined as 1.16.
The same measure for G5A G27C: 0.61; for G5A G27U: 0.538; for G5A G27A: 0.776.
On to G5C A37U, for which the self-cleavage worked out at 0.238.
The result for G5C A37C reads 0.259; that for G5C A37G, 0.44; that for G5A U19A, 0.382.
Regarding G5A U19G, the self-cleavage was 0.373.
The same measure for G5A U19C: 0.565.
For the variant G5C C29U, the self-cleavage was determined as 0.504.
In the case of G5C C29G, the self-cleavage was 0.344.
On to G5C C29A, for which the self-cleavage stood at 0.256.
Take G5C A6G: the self-cleavage was determined as 0.437.
For the variant G5C A6C, the self-cleavage was determined as 0.423.
For G5C A6U, the self-cleavage was 0.631.
The same measure for G5A G45C: 0.554.
For the variant G5A G45U, the self-cleavage came out at 0.587.
As to G5A G45A, the self-cleavage was 0.61.
In the case of G5A G25A, the self-cleavage turned out to be 0.327.
The result for G5A G25C reads 0.268.
Turning to G5A G25U, the self-cleavage came to 0.354.
G5C A40C: the self-cleavage was determined as 0.325.
Regarding G5C A40G, the self-cleavage stood at 0.237.
Consider G5C A40U, for which the self-cleavage amounted to 0.23.

The record behind these values is the RNAGym collection of RNA variant scans (doi:10.7554/elife.80360).
